In publication doi:10.1101/2023.06.13.544862:

Tests used:
[1] = target: EED labelled for microscale thermophoresis (human) (UniProt O75530); assay: MST
[2] = target: JMJD3 JmjC domain labelled for microscale thermophoresis (UniProt O15054); assay: MST
JMJD3 JmjC domain labelled for microscale thermophoresis, sequence (O15054 1339-1502): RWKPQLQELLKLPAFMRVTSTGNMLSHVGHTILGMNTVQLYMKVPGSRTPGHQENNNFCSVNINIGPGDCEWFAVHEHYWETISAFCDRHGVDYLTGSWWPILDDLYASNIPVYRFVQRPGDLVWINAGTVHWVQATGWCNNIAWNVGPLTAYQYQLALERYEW

EED labelled for microscale thermophoresis (human), sequence (O75530 whole entry, the tested form may be a part): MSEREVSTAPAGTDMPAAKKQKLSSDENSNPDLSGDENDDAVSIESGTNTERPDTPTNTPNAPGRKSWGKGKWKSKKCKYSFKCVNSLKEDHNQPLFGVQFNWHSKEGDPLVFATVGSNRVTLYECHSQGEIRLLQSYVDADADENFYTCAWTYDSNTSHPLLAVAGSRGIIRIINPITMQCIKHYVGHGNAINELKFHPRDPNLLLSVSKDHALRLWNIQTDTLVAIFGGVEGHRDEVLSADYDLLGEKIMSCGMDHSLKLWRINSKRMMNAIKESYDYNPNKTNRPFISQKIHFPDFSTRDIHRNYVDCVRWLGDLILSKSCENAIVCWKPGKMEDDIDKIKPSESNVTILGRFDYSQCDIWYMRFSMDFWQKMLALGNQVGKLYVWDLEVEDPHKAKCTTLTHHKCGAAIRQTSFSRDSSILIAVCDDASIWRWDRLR

Substance | Kd [1] | Kd [2]
NOP16 aa 25-32 peptide, di-methylated K29 (from UniProt Q9Y3C1 25-32) | 131 µM | –
NOP16 aa 25-32 peptide, tri-methylated K29 (from UniProt Q9Y3C1 25-32) | 1.21 µM | –
NOP16 aa 25-32 peptide, unmethylated K29 (from UniProt Q9Y3C1 25-32) | 11.6 µM | –
NOP16 aa 25-32 peptide, mono-methylated K29 (from UniProt Q9Y3C1 25-32) | 100 µM | –
H3K27me3 peptide | 0.95 µM | 8.59 µM
